The record followed here is paper PMC2234471 (The Journal of General Physiology, 2003).

The target of the assay is purified recombinant vertebrate CaM ( ("vertebrate"), UniProt P0DP23 1-149). In words: native gel or EMSA. On the technique in general: In EMSA bound probe runs differently from free probe, usually more slowly.

Consider AIRAVRILQFRLYKKKFKETLR [IQ2 peptide of KCNQ3 (481–503)], for which the binding result is recorded as “binds”.
With SIRAVCVMRFLVSKRKFKESLR [IQ2 peptide of KCNQ2 (508–530)] the entry was “binds”.
